Molecular target: WRN_(235–526) (human)
Test: SEC

Chain of WRN_(235–526) (domain or fragment) (Q14191 2-1432): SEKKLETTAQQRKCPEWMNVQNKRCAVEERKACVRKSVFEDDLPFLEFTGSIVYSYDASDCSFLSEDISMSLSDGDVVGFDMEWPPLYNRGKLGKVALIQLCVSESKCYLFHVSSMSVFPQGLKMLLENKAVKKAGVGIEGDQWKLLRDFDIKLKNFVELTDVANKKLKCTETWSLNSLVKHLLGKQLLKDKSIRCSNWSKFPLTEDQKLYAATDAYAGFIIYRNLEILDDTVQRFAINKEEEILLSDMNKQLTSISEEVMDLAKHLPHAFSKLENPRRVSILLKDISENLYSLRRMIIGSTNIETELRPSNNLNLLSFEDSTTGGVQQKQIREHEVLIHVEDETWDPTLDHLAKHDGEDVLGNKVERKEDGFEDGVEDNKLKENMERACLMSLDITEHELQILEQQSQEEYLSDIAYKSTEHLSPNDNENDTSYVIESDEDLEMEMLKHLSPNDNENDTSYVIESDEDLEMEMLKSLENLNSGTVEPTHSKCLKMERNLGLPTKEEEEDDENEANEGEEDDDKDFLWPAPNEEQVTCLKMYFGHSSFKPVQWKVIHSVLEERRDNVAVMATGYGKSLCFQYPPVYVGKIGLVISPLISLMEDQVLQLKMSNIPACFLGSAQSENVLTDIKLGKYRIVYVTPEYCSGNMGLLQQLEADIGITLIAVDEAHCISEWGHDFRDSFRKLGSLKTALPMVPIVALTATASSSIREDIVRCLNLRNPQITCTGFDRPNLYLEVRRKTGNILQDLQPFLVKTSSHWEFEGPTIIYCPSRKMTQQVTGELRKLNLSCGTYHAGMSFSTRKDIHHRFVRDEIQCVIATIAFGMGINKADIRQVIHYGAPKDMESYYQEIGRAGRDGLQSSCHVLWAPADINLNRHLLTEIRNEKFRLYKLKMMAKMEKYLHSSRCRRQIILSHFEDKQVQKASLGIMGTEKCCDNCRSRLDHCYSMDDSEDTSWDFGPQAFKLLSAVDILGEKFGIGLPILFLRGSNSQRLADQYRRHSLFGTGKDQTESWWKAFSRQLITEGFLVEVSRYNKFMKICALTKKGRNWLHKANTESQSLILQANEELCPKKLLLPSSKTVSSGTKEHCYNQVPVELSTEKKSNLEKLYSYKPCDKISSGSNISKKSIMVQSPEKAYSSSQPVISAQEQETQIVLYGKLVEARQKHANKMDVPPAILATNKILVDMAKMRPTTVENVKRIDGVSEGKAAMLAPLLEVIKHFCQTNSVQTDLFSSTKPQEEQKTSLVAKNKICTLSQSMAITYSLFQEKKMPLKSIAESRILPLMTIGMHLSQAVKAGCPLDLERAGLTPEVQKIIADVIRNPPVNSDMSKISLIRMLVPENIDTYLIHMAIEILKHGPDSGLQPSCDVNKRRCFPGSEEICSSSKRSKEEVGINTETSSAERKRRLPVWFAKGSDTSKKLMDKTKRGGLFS

stoichiometry N: 6
Substance: WRN_(235–526) (domain or fragment)
